According to patent publication US20030083469, “Allosteric control of nuclear hormone receptors” (The Salk Institute for Biological Studies, published 2003):

Biological target: GAL4 DBD-RXRalpha LBD (Saccharomyces cerevisiae / Homo sapiens, UniProt P04386;P19793 P04386:1-147,P19793:203-462)
Test: cell_activity; fold response to 100 nM LG69; 4 copies UASG TK-LUC, CV-1 cells
Settings: tags: GAL4 DBD (1-147) N-terminal fusion

GAL4 DBD-RXRalpha LBD, sequence (P04386 1-147, chain 1 of 2): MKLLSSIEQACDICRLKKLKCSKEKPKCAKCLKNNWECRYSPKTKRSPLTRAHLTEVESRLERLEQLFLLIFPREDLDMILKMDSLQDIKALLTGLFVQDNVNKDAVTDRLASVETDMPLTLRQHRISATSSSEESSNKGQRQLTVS
GAL4 DBD-RXRalpha LBD, sequence (P19793 203-462, chain 2 of 2): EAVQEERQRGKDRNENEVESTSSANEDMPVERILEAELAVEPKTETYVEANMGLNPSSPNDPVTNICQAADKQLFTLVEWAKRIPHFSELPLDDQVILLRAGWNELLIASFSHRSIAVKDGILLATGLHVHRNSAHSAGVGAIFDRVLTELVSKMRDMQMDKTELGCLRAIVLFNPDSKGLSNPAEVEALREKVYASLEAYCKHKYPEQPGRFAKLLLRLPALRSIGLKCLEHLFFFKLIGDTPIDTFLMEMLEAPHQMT

B1: UASG x4 (dsDNA)
DNA 1: CGACGGAGTACTGTCCTCCGAGCT
DNA 2: AGCTCGGAGGACAGTACTCCGTCG
B1 showed an activity of 69 fold.
